Experimental findings from patent US6130078 are described below.

For the data set, the system named is NspHI restriction endonuclease (NspHIR) (Nostoc sp. (ATCC 29106)). Nature of the data set: cleavage_in_vitro. The note with it: cell extract dilutions 10^-1 to 10^-5 on lambda DNA.

Regarding bacteriophage lambda DNA, the activity (units per g wet cells) is 186000.
